Source: patent publication CN113861292A (BIO THERA SOLUTIONS LTD, dated 2021)

T1: mCD40-his(小鼠CD40) (小鼠 (mouse), UniProt P27512 24-193, limits assumed)
T1 construct: Bought His-tagged protein; also called 小鼠的CD40
T1 sequence (looked up): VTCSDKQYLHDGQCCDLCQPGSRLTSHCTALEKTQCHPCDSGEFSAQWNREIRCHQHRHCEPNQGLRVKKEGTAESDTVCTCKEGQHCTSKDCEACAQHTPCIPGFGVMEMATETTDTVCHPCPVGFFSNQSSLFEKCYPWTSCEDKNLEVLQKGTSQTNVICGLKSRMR

B1: APX005 (antibody, V domains shown)
VH: QVQLVESGGGVVQPGRSLRLSCAASGFSFSSTYVCWVRQAPGKGLEWIACIYTGDGTNYSASWAKGRFTISKDSSKNTVYLQMNSLRAEDTAVYFCARPDITYGFAINFWGPGTLVTVSS
VL: DIQMTQSPSSLSASVGDRVTIKCQASQSISSRLAWYQQKPGKPPKLLIYRASTLASGVPSRFSGSGSGTDFTLTISSLQPEDVATYYCQCTGYGISWPIGGGTKVEIK
B2: 抗体25 (antibody, human IgG1, kappa, V domains shown)
VH: EVQLVESGGGLVQPGGSLRLSCAASGFSFGTYAMSWVRQAPGKGLEWVSGIDSGTGNPFYADSVKGRFTISRDNSKNTLYLQMNSLRAEDTAVYYCARALYYTGFYRPLDYWGQGTLVTVSS
VL: DIQMTQSPSSLSASVGDRVTITCRASQGISSYLAWYQQKPGKAPKLLIYAASSLQSGVPSRFSGSGSGTDFTLTISSLQPEDFATYYCQQHYTTPPTFGQGTKVEIKR
notes: also called antibody 25; 抗CD40抗体

Key:
人CD40 [1] = molecular target: T2, 人CD40 (human, UniProt P25942 21-277); assay: flow cytometry (MFI) on Daudi cells expressing CD40
T2 construct: whole, on cells; also called hCD40; CD40 on Daudi cells
T2 sequence (P25942 21-277): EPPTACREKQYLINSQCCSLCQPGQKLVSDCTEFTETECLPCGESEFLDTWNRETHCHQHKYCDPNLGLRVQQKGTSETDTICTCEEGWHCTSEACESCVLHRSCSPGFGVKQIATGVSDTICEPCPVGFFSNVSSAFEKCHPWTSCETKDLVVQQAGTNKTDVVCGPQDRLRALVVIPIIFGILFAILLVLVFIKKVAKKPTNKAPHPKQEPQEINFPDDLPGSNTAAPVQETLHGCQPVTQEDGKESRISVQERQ

人CD40 [2] = molecular target: T2, 人CD40; assay: flow cytometry (MFI) on HT1080-hCD40 cells
mCD40-his(小鼠CD40) = molecular target: T1, mCD40-his(小鼠CD40); assay: ELISA, 2 μg/ml mCD40-his coated, HRP second antibody

Binder	EC50 (人CD40 [1]) [µg/mL]	EC50 (人CD40 [2]) [µg/mL]	binding result (mCD40-his(小鼠CD40))
B1	0.86	0.995	–
B2	0.414	0.593	no binding
